# Data reported in patent US20210246200A1 (UNIVERSIT T Z RICH, published 2021).
# Assays:
# Proleukin® (aldesleukin) [1] = biological target: T1, Proleukin® (aldesleukin) (human, UniProt P60568 21-153, limits assumed); experiment: ELISA, coated Proleukin, HEK293F supernatant 1:2
# T1 construct: Variant of human wt IL-2 with C145S (C125S on mature IL-2); also called IL-2 (Proleukin®); human IL-2 (Proleukin)
# Experimental: Subsequently, hIL-2 binding efficiency of the antibodies present in the supernatants was determined using ELISA. In brief, ELISA plates (Maxisorp 96-well black microtiter plate) were coated overnight at 4° C. with 100p/well of Proleukin® (5 μg/ml PBS). ELISA plates were washed once with TBST (1×TBS/0.05% Tween 20) using a plate-washer (BioTek). […] After removal of the blocking buffer, plates were washed once with TBST using the plate washer. Supernatants were diluted 1:2 in blocking buffer and 50 μl transferred to the designated well of the ELISA plate. Each sample was present on three ELISA plates. The three plates were incubated at RT under gentle agitation. […] The other two plates were washed either every hour three times with TBST for 4 hours or washed every hour three times for 12 hours before adding the detection antibody. […] Luminescence signal was measured after 5 minutes incubation in the dark. […] All ELISA values are mean values based on two measurements.
# Proleukin® (aldesleukin) [2] = biological target: T1, Proleukin® (aldesleukin); experiment: ELISA, coated Proleukin, serially diluted supernatant
# T1 sequence (P60568 other isoform, or with tags, fused parts or gaps limits assumed): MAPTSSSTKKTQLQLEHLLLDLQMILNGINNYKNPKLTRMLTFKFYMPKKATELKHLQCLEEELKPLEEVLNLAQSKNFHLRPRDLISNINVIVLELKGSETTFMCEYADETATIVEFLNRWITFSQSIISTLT
binder,measurement,setting,value
"Antibody No: 2 (antibody, human IgG1, kappa, N297A, V domains shown, VH WT; VK M33L; HEK293F supernatant) VH: EVQLVQSGAEVKKPGESLKISCKGSGYAFTNYLIEWVRQMPGKGLEWMGVINPGSGGTNYNEKFKGQVTISADKSISTAYLQWSSLKASDTAMYYCARWRGEGYYAYFDVWGQGTTVTVSS VL: AIRLTQSPSSFSASTGDRVTITCKASQSVDYQGDSYLNWYQQKPGKAPKLLIYAASNLESGVPSRFSGSGSGTDFTLTISSLQSEDFATYYCQQSNEDPYTFGGGTKVEIKR",ELISA value (Normal ELISA),Proleukin® (aldesleukin) [1],1360 luminescence signal
same,ELISA value (wash 3x every hour for 4 HRS),Proleukin® (aldesleukin) [1],1230 luminescence signal
same,ELISA value (wash 3x every hour for 12 HRS),Proleukin® (aldesleukin) [1],518 luminescence signal
same,EC50,Proleukin® (aldesleukin) [2],0.79 nM
"Antibody No: 3 (antibody, human IgG1, kappa, N297A, V domains shown, VH WT; VK A50S; HEK293F supernatant) VH: EVQLVQSGAEVKKPGESLKISCKGSGYAFTNYLIEWVRQMPGKGLEWMGVINPGSGGTNYNEKFKGQVTISADKSISTAYLQWSSLKASDTAMYYCARWRGEGYYAYFDVWGQGTTVTVSS VL: AIRLTQSPSSFSASTGDRVTITCKASQSVDYQGDSYMNWYQQKPGKAPKLLIYSASNLESGVPSRFSGSGSGTDFTLTISSLQSEDFATYYCQQSNEDPYTFGGGTKVEIKR",ELISA value (Normal ELISA),Proleukin® (aldesleukin) [1],4500 luminescence signal
same,ELISA value (wash 3x every hour for 4 HRS),Proleukin® (aldesleukin) [1],4580 luminescence signal
same,ELISA value (wash 3x every hour for 12 HRS),Proleukin® (aldesleukin) [1],1310 luminescence signal
same,EC50,Proleukin® (aldesleukin) [2],0.51 nM
"Antibody No: 4 (antibody, human IgG1, kappa, N297A, V domains shown, VH WT; VK A50T; HEK293F supernatant) VH: EVQLVQSGAEVKKPGESLKISCKGSGYAFTNYLIEWVRQMPGKGLEWMGVINPGSGGTNYNEKFKGQVTISADKSISTAYLQWSSLKASDTAMYYCARWRGEGYYAYFDVWGQGTTVTVSS VL: AIRLTQSPSSFSASTGDRVTITCKASQSVDYQGDSYMNWYQQKPGKAPKLLIYTASNLESGVPSRFSGSGSGTDFTLTISSLQSEDFATYYCQQSNEDPYTFGGGTKVEIKR",ELISA value (Normal ELISA),Proleukin® (aldesleukin) [1],2180 luminescence signal
same,ELISA value (wash 3x every hour for 4 HRS),Proleukin® (aldesleukin) [1],1990 luminescence signal
same,ELISA value (wash 3x every hour for 12 HRS),Proleukin® (aldesleukin) [1],705 luminescence signal
same,EC50,Proleukin® (aldesleukin) [2],0.73 nM
"Antibody No: 5 (antibody, human IgG1, kappa, N297A, V domains shown, VH WT; VK M33L + A50S; HEK293F supernatant) VH: EVQLVQSGAEVKKPGESLKISCKGSGYAFTNYLIEWVRQMPGKGLEWMGVINPGSGGTNYNEKFKGQVTISADKSISTAYLQWSSLKASDTAMYYCARWRGEGYYAYFDVWGQGTTVTVSS VL: AIRLTQSPSSFSASTGDRVTITCKASQSVDYQGDSYLNWYQQKPGKAPKLLIYSASNLESGVPSRFSGSGSGTDFTLTISSLQSEDFATYYCQQSNEDPYTFGGGTKVEIKR",ELISA value (Normal ELISA),Proleukin® (aldesleukin) [1],4970 luminescence signal
same,ELISA value (wash 3x every hour for 4 HRS),Proleukin® (aldesleukin) [1],4490 luminescence signal
same,ELISA value (wash 3x every hour for 12 HRS),Proleukin® (aldesleukin) [1],873 luminescence signal
same,EC50,Proleukin® (aldesleukin) [2],0.5 nM
"Antibody No: 6 (antibody, human IgG1, kappa, N297A, V domains shown, VK WT; HEK293F supernatant) VH: EVQLVQSGAEVKKPGESLKISCKGSGYAFTNYLIEWVRQMPGKGLEWMGVINPGSGGTNYNEKFKGQVTISADKSISTAYLQWSSLKASDTAMYYCARWRGEGYYAYYDVWGQGTTVTVSS VL: AIRLTQSPSSFSASTGDRVTITCKASQSVDYQGDSYMNWYQQKPGKAPKLLIYAASNLESGVPSRFSGSGSGTDFTLTISSLQSEDFATYYCQQSNEDPYTFGGGTKVEIKR",ELISA value (Normal ELISA),Proleukin® (aldesleukin) [1],5850 luminescence signal
same,ELISA value (wash 3x every hour for 4 HRS),Proleukin® (aldesleukin) [1],5120 luminescence signal
same,ELISA value (wash 3x every hour for 12 HRS),Proleukin® (aldesleukin) [1],1730 luminescence signal
same,EC50,Proleukin® (aldesleukin) [2],0.34 nM
"Antibody No: 7 (antibody, human IgG1, kappa, N297A, V domains shown, VK M33L; HEK293F supernatant) VH: EVQLVQSGAEVKKPGESLKISCKGSGYAFTNYLIEWVRQMPGKGLEWMGVINPGSGGTNYNEKFKGQVTISADKSISTAYLQWSSLKASDTAMYYCARWRGEGYYAYYDVWGQGTTVTVSS VL: AIRLTQSPSSFSASTGDRVTITCKASQSVDYQGDSYLNWYQQKPGKAPKLLIYAASNLESGVPSRFSGSGSGTDFTLTISSLQSEDFATYYCQQSNEDPYTFGGGTKVEIKR",ELISA value (Normal ELISA),Proleukin® (aldesleukin) [1],7640 luminescence signal
same,ELISA value (wash 3x every hour for 4 HRS),Proleukin® (aldesleukin) [1],6360 luminescence signal
same,ELISA value (wash 3x every hour for 12 HRS),Proleukin® (aldesleukin) [1],1550 luminescence signal
same,EC50,Proleukin® (aldesleukin) [2],0.31 nM
"Antibody No: 9 (antibody, human IgG1, kappa, N297A, V domains shown, VK A50T; HEK293F supernatant) VH: EVQLVQSGAEVKKPGESLKISCKGSGYAFTNYLIEWVRQMPGKGLEWMGVINPGSGGTNYNEKFKGQVTISADKSISTAYLQWSSLKASDTAMYYCARWRGEGYYAYYDVWGQGTTVTVSS VL: AIRLTQSPSSFSASTGDRVTITCKASQSVDYQGDSYMNWYQQKPGKAPKLLIYTASNLESGVPSRFSGSGSGTDFTLTISSLQSEDFATYYCQQSNEDPYTFGGGTKVEIKR",ELISA value (Normal ELISA),Proleukin® (aldesleukin) [1],1940 luminescence signal
same,ELISA value (wash 3x every hour for 4 HRS),Proleukin® (aldesleukin) [1],1430 luminescence signal
same,ELISA value (wash 3x every hour for 12 HRS),Proleukin® (aldesleukin) [1],686 luminescence signal
same,EC50,Proleukin® (aldesleukin) [2],0.5 nM
"Antibody No: 10 (antibody, human IgG1, kappa, N297A, V domains shown, VK M33L + A50S; HEK293F supernatant) VH: EVQLVQSGAEVKKPGESLKISCKGSGYAFTNYLIEWVRQMPGKGLEWMGVINPGSGGTNYNEKFKGQVTISADKSISTAYLQWSSLKASDTAMYYCARWRGEGYYAYYDVWGQGTTVTVSS VL: AIRLTQSPSSFSASTGDRVTITCKASQSVDYQGDSYLNWYQQKPGKAPKLLIYSASNLESGVPSRFSGSGSGTDFTLTISSLQSEDFATYYCQQSNEDPYTFGGGTKVEIKR",ELISA value (Normal ELISA),Proleukin® (aldesleukin) [1],6050 luminescence signal
same,ELISA value (wash 3x every hour for 4 HRS),Proleukin® (aldesleukin) [1],4430 luminescence signal
same,ELISA value (wash 3x every hour for 12 HRS),Proleukin® (aldesleukin) [1],1630 luminescence signal
same,EC50,Proleukin® (aldesleukin) [2],0.35 nM
"Antibody No: 11 (antibody, human IgG1, kappa, N297A, V domains shown, VH N58Y; VK WT; HEK293F supernatant) VH: EVQLVQSGAEVKKPGESLKISCKGSGYAFTNYLIEWVRQMPGKGLEWMGVINPGSGGTYYNEKFKGQVTISADKSISTAYLQWSSLKASDTAMYYCARWRGEGYYAYFDVWGQGTTVTVSS VL: AIRLTQSPSSFSASTGDRVTITCKASQSVDYQGDSYMNWYQQKPGKAPKLLIYAASNLESGVPSRFSGSGSGTDFTLTISSLQSEDFATYYCQQSNEDPYTFGGGTKVEIKR",ELISA value (Normal ELISA),Proleukin® (aldesleukin) [1],12400 luminescence signal
same,ELISA value (wash 3x every hour for 4 HRS),Proleukin® (aldesleukin) [1],10500 luminescence signal
same,ELISA value (wash 3x every hour for 12 HRS),Proleukin® (aldesleukin) [1],3500 luminescence signal
same,EC50,Proleukin® (aldesleukin) [2],0.34 nM
"Antibody No: 14 (antibody, human IgG1, kappa, N297A, V domains shown, VH N58Y; VK A50T; HEK293F supernatant) VH: EVQLVQSGAEVKKPGESLKISCKGSGYAFTNYLIEWVRQMPGKGLEWMGVINPGSGGTYYNEKFKGQVTISADKSISTAYLQWSSLKASDTAMYYCARWRGEGYYAYFDVWGQGTTVTVSS VL: AIRLTQSPSSFSASTGDRVTITCKASQSVDYQGDSYMNWYQQKPGKAPKLLIYTASNLESGVPSRFSGSGSGTDFTLTISSLQSEDFATYYCQQSNEDPYTFGGGTKVEIKR",ELISA value (Normal ELISA),Proleukin® (aldesleukin) [1],7180 luminescence signal
same,ELISA value (wash 3x every hour for 4 HRS),Proleukin® (aldesleukin) [1],7200 luminescence signal
same,ELISA value (wash 3x every hour for 12 HRS),Proleukin® (aldesleukin) [1],2540 luminescence signal
same,EC50,Proleukin® (aldesleukin) [2],0.36 nM
"Antibody No: 16 (antibody, human IgG1, kappa, N297A, V domains shown, VK WT; HEK293F supernatant) VH: EVQLVQSGAEVKKPGESLKISCKGSGYAFTNYLIEWVRQMPGKGLEWMGVINPGSGGTYYNEKFKGQVTISADKSISTAYLQWSSLKASDTAMYYCARWRGEGYYAYYDVWGQGTTVTVSS VL: AIRLTQSPSSFSASTGDRVTITCKASQSVDYQGDSYMNWYQQKPGKAPKLLIYAASNLESGVPSRFSGSGSGTDFTLTISSLQSEDFATYYCQQSNEDPYTFGGGTKVEIKR",ELISA value (Normal ELISA),Proleukin® (aldesleukin) [1],10200 luminescence signal
same,ELISA value (wash 3x every hour for 4 HRS),Proleukin® (aldesleukin) [1],9810 luminescence signal
same,ELISA value (wash 3x every hour for 12 HRS),Proleukin® (aldesleukin) [1],2280 luminescence signal
same,EC50,Proleukin® (aldesleukin) [2],0.38 nM
"Antibody No: 17 (antibody, human IgG1, kappa, N297A, V domains shown, VK M33L; HEK293F supernatant) VH: EVQLVQSGAEVKKPGESLKISCKGSGYAFTNYLIEWVRQMPGKGLEWMGVINPGSGGTYYNEKFKGQVTISADKSISTAYLQWSSLKASDTAMYYCARWRGEGYYAYYDVWGQGTTVTVSS VL: AIRLTQSPSSFSASTGDRVTITCKASQSVDYQGDSYLNWYQQKPGKAPKLLIYAASNLESGVPSRFSGSGSGTDFTLTISSLQSEDFATYYCQQSNEDPYTFGGGTKVEIKR",ELISA value (Normal ELISA),Proleukin® (aldesleukin) [1],3050 luminescence signal
same,ELISA value (wash 3x every hour for 4 HRS),Proleukin® (aldesleukin) [1],2820 luminescence signal
same,ELISA value (wash 3x every hour for 12 HRS),Proleukin® (aldesleukin) [1],1140 luminescence signal
same,EC50,Proleukin® (aldesleukin) [2],1.39 nM
